From the supplement of paper PMC12042874
± gives the uncertainty stated by the source.

Assay: amyloid nucleation score (Sup35N fusion, yeast selection) (log enrichment); library NNK1; higher = more nucleation; inactive = no reads after selection
How it was run: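 Peptides of 20 random codons, each fused to Sup35N, were expressed in psi-negative yeast. Cells were induced with 100 μM copper sulfate for 24 hours and grown 7 days at 30°C on medium lacking adenine and uracil, and plasmid inserts before and after selection were Illumina-sequenced. Nucleation scores are DiMSum log enrichments of output over input reads, centred on the mode score of non-aggregating sequences, and sequences under 100 input reads were excluded.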
ITGGVVWEHS showed an amyloid nucleation score of 0.358 ± 1. Work on ITKGAPSLYYMCRRGEDACS yielded an amyloid nucleation score of 0.523 ± 0.44. Work on ITMFNLYQCSL yielded an amyloid nucleation score of 5.78 ± 0.065. With ITMGTGCSAGEWFMVYMMC the amyloid nucleation score was 2.15 ± 0.2. For ITVDAMIKSVYFITDSYRHF, the amyloid nucleation score was 0.911 ± 0.26. Substance ITVRATR has an amyloid nucleation score of -0.97 ± 1.7. ITYSTYLMSCGRSMYQGWKV gave an amyloid nucleation score of 0.372 ± 0.23. IVDYVGCLRHYECYGWQPWG gave an amyloid nucleation score of 0.225 ± 0.51. In the case of IVETLCRYCVPRVMVTFVGQ, the amyloid nucleation score is reported as “inactive”. IVLRFIRILISINLSQEH showed an amyloid nucleation score of -1.14 ± 0.76. Work on IVLTHYGSVLFHSYKGYFMW yielded an amyloid nucleation score of -0.197 ± 0.29. Work on IVTALEGYRDYFSEPCIFFM yielded an amyloid nucleation score of -0.176 ± 0.32. Work on IVVGCGCPPRINCFV yielded an amyloid nucleation score of -0.444 ± 0.7. Substance IVWSYSRTIYLNFI has an amyloid nucleation score of 0.873 ± 0.68. In the case of IVYIWFLSLNFSMMVSFRFP, the amyloid nucleation score is reported as 0.805 ± 0.29. IWDHCFGPVKCCNIWGKEVG showed an amyloid nucleation score of 5.1 ± 0.079. For IWIDKRWLMMPKLVRKVPNV, the amyloid nucleation score was “inactive”. Work on IWLCVYNGM yielded an amyloid nucleation score of 4.98 ± 0.12. IWLSQYDHGNCVTYSQANYM gave an amyloid nucleation score of 0.412 ± 0.85. With IWMFISAVASFNITRSWCYL the amyloid nucleation score was 2.02 ± 0.13. In the case of IWMGCYVNVARSK, the amyloid nucleation score is reported as 1.03 ± 0.22. With IWNIVWNNLVYVNFSNLGGV the amyloid nucleation score was 3.73 ± 0.08. For IWWVDGVKTGSF, the amyloid nucleation score was 1.21 ± 0.76. In the case of IWYSVWNSNGFSHSRHGQQR, the amyloid nucleation score is reported as “inactive”. For IYDTGVAFDCSLM, the amyloid nucleation score was “inactive”. IYEKRGD showed an amyloid nucleation score of 1.15 ± 0.98. With IYFTSTMKLRQDILADNEHC the amyloid nucleation score was 1.08 ± 0.54. Work on IYKVLYYEVNKFWTTIVSSR yielded an amyloid nucleation score of -0.651 ± 0.29. IYLSNAYSTTYSLKFSFM showed an amyloid nucleation score of 6.14 ± 0.071. For IYNQESVEYQGTMYLHFRYW, the amyloid nucleation score was “inactive”. For IYPKLDCYVAVVLLDLSGVT, the amyloid nucleation score was “inactive”. In the case of IYQLDVLGFDFN, the amyloid nucleation score is reported as “inactive”. Work on IYSNKRTNMLMCMYNSVRGH yielded an amyloid nucleation score of 0.243 ± 0.35. For IYSRVGWETSWDWSVSVWGF, the amyloid nucleation score was 0.031 ± 0.37. For KACWTFNFCKSMVVKEHDPI, the amyloid nucleation score was 2.56 ± 0.19. With KAGVSVLYLHMFLF the amyloid nucleation score was -0.303 ± 0.79. With KAPAMHWLDRFVGYVPRV the amyloid nucleation score was -0.011 ± 0.27. Substance KAQGPSFYEYRWITLNYLGY has an amyloid nucleation score of 1.07 ± 0.15. In the case of KASGIMLSSGVLEILVWVQW, the amyloid nucleation score is reported as 0.01 ± 0.84. KASMMPSDSSCLI showed an amyloid nucleation score of 0.911 ± 0.34. KAVFDNLLTCPILVIGSTPA gave an amyloid nucleation score of -0.956 ± 0.93. In the case of KCGGKRCWLSFCLDAD, the amyloid nucleation score is reported as 1.48 ± 0.33. For KCHRPWYSCLIC, the amyloid nucleation score was 1.98 ± 0.61. Substance KCIDMVFKY has an amyloid nucleation score of 0.143 ± 0.39. KCLTMDFLR showed an amyloid nucleation score of -1.12 ± 1.1. Work on KCREIALHYPAYIPFVLIAY yielded an amyloid nucleation score of -0.031 ± 0.82. With KCSFNLTLIVF the amyloid nucleation score was 1.77 ± 0.15. KCTELTTCRSPVMKGEAVWL gave an amyloid nucleation score of -0.052 ± 0.77. In the case of KCYLLRKVGCWHQHLDGHFG, the amyloid nucleation score is reported as -0.429 ± 0.66. Work on KDICSYGLNYSLDNVVYNLV yielded an amyloid nucleation score of 0.809 ± 0.39. In the case of KDISITCLLYPKNHSGYSGT, the amyloid nucleation score is reported as 0.058 ± 0.25. KDLLYKSIRW showed an amyloid nucleation score of 1.03 ± 0.27. With KDNLYWKDLSVCLRRFVGLH the amyloid nucleation score was “inactive”. KDVMYTYFIAISDLGIRNPL gave an amyloid nucleation score of 1.3 ± 0.56. With KEIIEMWSTFTYNQIWCDWI the amyloid nucleation score was -0.322 ± 0.42. In the case of KELIKCYLNM, the amyloid nucleation score is reported as 0.463 ± 0.5. Substance KFCLDLSYLFSSRTVMYEIV has an amyloid nucleation score of -0.24 ± 0.26. With KFKKFGSSDGLDCDRYILVG the amyloid nucleation score was -0.799 ± 1.2. KFNIVILLINCAPAFSEMYL gave an amyloid nucleation score of 5.475 ± 0.05. Substance KFTFDS has an amyloid nucleation score of 1.52 ± 0.35. Work on KFVHNYSLKYIKGVVSCQFL yielded an amyloid nucleation score of 0.727 ± 0.37. Work on KFVYEGSGHQVILYVTLMGY yielded an amyloid nucleation score of -1.59 ± 0.84. In the case of KGCAIGRRAINSCYQSGWIW, the amyloid nucleation score is reported as 1.6 ± 0.57. KGCCLCLISMSVTNRLVEPR gave an amyloid nucleation score of 6.294 ± 0.059. With KGNYFRVTVYSAGFIQLLMS the amyloid nucleation score was 6.393 ± 0.049. KGTAPGNSGGERVVMNSHDL showed an amyloid nucleation score of 2.61 ± 0.22. With KHDRHAKTTSLYRKPGKLRR the amyloid nucleation score was 0.4 ± 1.1. Substance KHRFCSIEWVK has an amyloid nucleation score of 1.31 ± 0.71. For KHWSCRYWEEFGGMDHNLDW, the amyloid nucleation score was 1.1 ± 0.38. With KIEFIGDVRFA the amyloid nucleation score was 0.92 ± 0.67. Substance KIICFRLKSPLVWKMYDKTG has an amyloid nucleation score of -0.699 ± 0.32. In the case of KIRVYSRCCFLSG, the amyloid nucleation score is reported as 5.63 ± 0.071. In the case of KKAIPACHVVSFTMRLSFLD, the amyloid nucleation score is reported as 0.225 ± 0.63. For KKSGRYESVSQGWYDRLLQF, the amyloid nucleation score was -0.667 ± 0.31. With KKWHNVIGARDLSRIYSIA the amyloid nucleation score was “inactive”. For KLCCSLVNSIMNLFAMSAAV, the amyloid nucleation score was “inactive”. For KLESCN, the amyloid nucleation score was 0.39 ± 1.2. In the case of KLILK, the amyloid nucleation score is reported as -0.378 ± 0.51. KLIVVSLIRDMQSNV gave an amyloid nucleation score of -0.059 ± 0.27. Substance KLMVHRNDRNPMY has an amyloid nucleation score of -0.318 ± 0.63. In the case of KLSNFKVHYCYLTSHLMLET, the amyloid nucleation score is reported as 0.053 ± 0.43. With KLSYFSQEKRDNWPISRLPS the amyloid nucleation score was 0.072 ± 0.3. KLYWTYLTPGTNSGLQSPDS showed an amyloid nucleation score of -0.288 ± 0.62. KMIDICPFIHWSQSSTPSRA gave an amyloid nucleation score of 0.018 ± 0.67. Substance KMLSSQLITRPFGGPKRHKP has an amyloid nucleation score of 0.753 ± 0.65. In the case of KMRVHGLAVHRATQ, the amyloid nucleation score is reported as -0.737 ± 0.71. Work on KMSVRNVTDFGVRLVRYFNG yielded an amyloid nucleation score of 1.42 ± 0.22. In the case of KNAPLPRIVTIGKVLRYNRG, the amyloid nucleation score is reported as 0.422 ± 0.79. KNRQLTRLFYTWELRTGTVG gave an amyloid nucleation score of -0.227 ± 0.61. KNVYDYFWLDNCYAIDIASM gave an amyloid nucleation score of 0.427 ± 0.41. Work on KPLILVQNTKLPSRFCYPLT yielded an amyloid nucleation score of -0.488 ± 0.74. In the case of KPRVRAAGLCSLQFWALIAV, the amyloid nucleation score is reported as -0.275 ± 0.72. For KQRSN, the amyloid nucleation score was 0.746 ± 0.7. For KRALQDRMLLEP, the amyloid nucleation score was -0.286 ± 1. Substance KRARGDFYILEWQSDLDNLG has an amyloid nucleation score of -0.755 ± 0.67. In the case of KRDFVSRLDESPN, the amyloid nucleation score is reported as -0.873 ± 1.1. With KRLLFKYRSVNRHTYLFIPV the amyloid nucleation score was -0.616 ± 0.28. In the case of KRRWPSSNGDFFAECYQLGT, the amyloid nucleation score is reported as 0.461 ± 0.25. Work on KRRYYCFGAMVY yielded an amyloid nucleation score of 0.203 ± 0.38. With KRTAHRMVRSCSLWKVRYRQ the amyloid nucleation score was 0.462 ± 1.2. KRVSRNPNPGVV showed an amyloid nucleation score of -0.076 ± 0.56. With KRWTKNFDCFQTVMHIYCSQ the amyloid nucleation score was “inactive”. For KRYSGDIDMTSREMGLFK, the amyloid nucleation score was 0.356 ± 0.16. Substance KSAASILCTMNVSYRSNFLE has an amyloid nucleation score of 1.08 ± 0.37. KSCAHSYEFHHCNCAVVFTL showed an amyloid nucleation score of 6.6 ± 0.051. For KSERERRVLMQRSDECVKSF, the amyloid nucleation score was -0.297 ± 0.5. Substance KSFNVLCHIAVVPNRWVGRT has an amyloid nucleation score of 2.49 ± 0.13. For KSHIIFSIWQRLFGGHRISK, the amyloid nucleation score was 0.413 ± 0.58. Work on KSIRVNTMHRC yielded an amyloid nucleation score of 2.19 ± 0.3. Work on KSITWSKGDFARSTLLVNIC yielded an amyloid nucleation score of 0.397 ± 0.43. In the case of KSLQRWRDRCRDHVLSAS, the amyloid nucleation score is reported as -0.083 ± 1. With KSMKGRSLRLRLKRDPRKVA the amyloid nucleation score was -0.051 ± 0.4. With KSSNLVYVHTAHQRGYYCNQ the amyloid nucleation score was 0.3 ± 0.41. For KTANGNCHENSQSDVFKSVS, the amyloid nucleation score was 0.346 ± 0.31. KTCFHNNLPKIGLPHHLHNG gave an amyloid nucleation score of -1.32 ± 1.9. With KTFYFTQLYSDYRLFFETGK the amyloid nucleation score was 0.558 ± 0.46. KTGTYWKSDGCVLWFGVKPA gave an amyloid nucleation score of 0.32 ± 0.38. In the case of KTMMIGFNNMWGGVQ, the amyloid nucleation score is reported as 3.34 ± 0.21. KVFQQGC showed an amyloid nucleation score of -0.165 ± 1.6. Work on KVFYVLLHGSILSNRGMWQT yielded an amyloid nucleation score of -0.725 ± 1.2. KVLNFNLSRACLLWDSFNSV gave an amyloid nucleation score of 2.65 ± 0.19. Work on KVVDNAYSSDSLYFVGLFFW yielded an amyloid nucleation score of 1.25 ± 0.84. KWGVCVLTHLGRYWLLLGCG showed an amyloid nucleation score of -0.145 ± 0.66. For KWSWGGPRDMIFKDTLAGAR, the amyloid nucleation score was “inactive”.
